How the values were obtained:
Mouse Ang-2FD-hFc = molecular target: T1, Mouse Ang-2FD-hFc (mouse (Mus musculus)); assay: blocking ELISA, 16.67 nM antibody, Ang-2FD-hFc to coated hTie-2-mFc
T1 construct: also called dimeric mouse Ang-2FD
Experimental: (§1) The plate was then blocked with PBS (Irvine Scientific, Santa Ana, Calif.) containing 0.5% BSA (Sigma-Aldrich Corp., St. Louis, Mo.) for one hour at room temperature. […] Human, mouse or monkey Ang-2FD protein conjugated to human IgG (Ang-2FD-hFc) were added to final concentrations of 2 nM, 8 nM, or 2 nM respectively and incubated for one hour at room temperature. The antibody/Ang-2FD-Fc mixture was then added to the plate containing hTie-2-mFc and incubated for one hour at room temperature. Detection of Ang-2FD-hFc bound to hTie-2-mFc protein was determined with Horse-Radish Peroxidase (HRP) conjugated to a-human IgG antibody (Jackson Immuno Research Lab, West Grove, Pa.) and developed by standard colorimetric response using tetramethylbenzidine (TMB) substrate (BD Biosciences, San Jose, Calif.). Absorbance was read at OD₄₅₀ for 0.1 sec.

[1] = molecular target: T2, wild-type human Ang-2 (hAng-2-WT) (human, UniProt O15123 19-496); assay: SPR, captured Ab
T2 construct: called full-length wild-type; also called Full-length wild-type human Ang-2
T2 sequence: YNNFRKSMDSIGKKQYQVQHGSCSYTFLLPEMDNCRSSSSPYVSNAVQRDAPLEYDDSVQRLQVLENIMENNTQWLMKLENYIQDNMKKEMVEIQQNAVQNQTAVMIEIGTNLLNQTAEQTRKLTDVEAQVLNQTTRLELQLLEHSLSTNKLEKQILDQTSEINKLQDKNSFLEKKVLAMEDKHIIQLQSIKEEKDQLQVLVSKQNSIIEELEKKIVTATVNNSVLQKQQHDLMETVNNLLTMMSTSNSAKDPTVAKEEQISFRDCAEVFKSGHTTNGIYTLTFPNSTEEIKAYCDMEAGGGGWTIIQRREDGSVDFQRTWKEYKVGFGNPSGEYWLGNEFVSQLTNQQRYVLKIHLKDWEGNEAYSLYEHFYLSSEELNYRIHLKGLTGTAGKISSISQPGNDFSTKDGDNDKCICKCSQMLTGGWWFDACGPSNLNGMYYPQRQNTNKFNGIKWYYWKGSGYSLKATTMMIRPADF

Monomeric hAng-2FD = molecular target: T3, Monomeric hAng-2FD (human, UniProt O15123 282-496); assay: SPR, captured Ab
T3 construct: also called fibrinogen-like domain of human Ang2; Human Ang-2FD
T3 sequence: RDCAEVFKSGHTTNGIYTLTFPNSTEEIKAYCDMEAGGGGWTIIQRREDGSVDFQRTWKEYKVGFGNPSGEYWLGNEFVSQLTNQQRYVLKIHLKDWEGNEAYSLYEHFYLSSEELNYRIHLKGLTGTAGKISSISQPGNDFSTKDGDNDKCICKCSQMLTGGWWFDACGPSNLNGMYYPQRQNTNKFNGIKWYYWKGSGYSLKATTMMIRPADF

[2] = molecular target: T4, Dimeric Human Ang-2FD conjugated to human IgG1 (human); assay: SPR, captured Ab, RT
T4 construct: also called Human Ang-2FD-hFc; hAng-2FD-hFc
Experimental: (§2) Antibody was captured on a goat anti-mouse IgG polyclonal antibody surface, a goat anti-human κ polyclonal antibody (Southern Biotech, Birmingham, Ala.) surface or a goat anti-human IgG polyclonal antibody (Jackson Immuno Research Lab, West Grove, Pa.) surface created through direct amine coupling to a BIACORE™ CM5 sensor chip to form a captured antibody surface. […] Antigen-antibody binding and dissociation were monitored in real time at room temperature. Kinetic analysis was performed to calculate KD and half-life of antigen/antibody complex dissociation.

[3] = molecular target: T5, Dimeric Mouse Ang-2FD conjugated to human IgG1 (mouse (Mus musculus); human); assay: SPR, captured Ab, RT
T5 construct: also called Mouse Ang-2FD-hFc
Experimental: as §2

[4] = molecular target: T6, Dimeric Monkey Ang-2FD conjugated to human IgG1 (monkey (Macca fascicularis); human); assay: SPR, captured Ab, RT
T6 construct: also called Monkey Ang-2FD-hFc
Experimental: as §2

[5] = molecular target: T7, human bow-Ang-2 tetrameric construct (hBA2) (human); assay: SPR, captured Ab
T7 construct: also called human BA2; hBA2-hIgG1

[6] = molecular target: T4, Dimeric Human Ang-2FD conjugated to …; assay: competition ELISA, 16.67 nM Ab, coated hTie-2-mFc
Experimental: as §1

[7] = molecular target: T5, Dimeric Mouse Ang-2FD conjugated to …; assay: competition ELISA, 16.67 nM Ab, coated hTie-2-mFc
Experimental: as §1

[8] = molecular target: T6, Dimeric Monkey Ang-2FD conjugated to …; assay: competition ELISA, 16.67 nM Ab, coated hTie-2-mFc
Experimental: as §1

B1: H1H685P (antibody, human IgG1, V domains shown)
VH: EVQLVESGGGLVQPGGSLRLSCAASGFTFSSYDIHWVRQATGKGLEWVSAIGPAGDTYYPGSVKGRFTISRENAKNSLYLQMNSLRAGDTAVYYCARGLITFGGLIAPFDYWGQGTLVTVSS
VL: EIVLTQSPGTLSLSPGERATLSCRASQSVSSTYLAWYQQKPGQAPRLLIYGASSRATGIPDRFSGSGSGTDFTLTISRLEPEDFAVYYCQHYDNSQTFGQGTKVEIK
notes: Fully human antibody, human IgG1
- Percent Blocking of Ang-2FD Binding to Tie-2 (Mouse Ang-2FD-hFc): 97.1%

B2: H1H750N (antibody, V domains shown)
VH: QVKLVESGGGVVQPGRSLRVSCAASGFTFSSYGMHWVRQAPGKGLEWLAIIWYDGDNKYYSDSVKGRFTISRDNSKNTLYLQMNSLRAEDTAEYYCVRDASIASRFLDYWGQGTLVTVSS
VL: DIQMTQSPSSLSASIGDRVTITCRATQDINNYLAWFQQKPGKAPKSLIYATSNLQSGVPSKFSGSGSGTDYTLTISSLQPEDFSTYYCQQYHSYPLTFGGGTKVEIK
- Kd [1]: 0.0095 nM
- T1/2 [1]: 74 h
- Kd (Monomeric hAng-2FD): 0.787 nM
- T1/2 (Monomeric hAng-2FD): 30.2 min
- Kd [2]: 0.164 nM
- T1/2 [2]: 127 min
- Kd [3]: 0.218 nM
- T1/2 [3]: 121 min
- Kd [4]: 0.199 nM
- T1/2 [4]: 244 min
- Kd [5]: 0.0369 nM
- T1/2 [5]: 284 min

B3: H1H696P (antibody, V domains shown)
VH: QVQLVESGGGLVKPGGSLRLSCAASGFTFSDYYMSWIRQAPGKGLEWVSYISYTGRTIYYADSVKGRFTISRDNAKNSLYLQMNSLRAEDTAVYYCARDTDYGDFFDYWGQGTLVTVSS
VL: DIQMTQSPSSLSASVGDRVTITCRASQGISNYLAWFQQKPGKAPKSLIYAASSLQSGVPSKFSGSGSGTDFTLTISSLQPEDFATYYCQQYNSYPLTFGGGTKVEIK
- Kd [1]: 0.0403 nM
- T1/2 [1]: 10.7 h
- Kd (Monomeric hAng-2FD): 38.4 nM
- T1/2 (Monomeric hAng-2FD): 0.2 min
- Kd [2]: 0.289 nM
- T1/2 [2]: 38.8 min
- Kd [3]: 0.402 nM
- T1/2 [3]: 37.6 min
- Kd [4]: 0.354 nM
- T1/2 [4]: 36.6 min
- Kd [5]: 0.111 nM
- T1/2 [5]: 51.5 min

B4: H2M750N (antibody, V domains shown)
VH: QVKLVESGGGVVQPGRSLRVSCAASGFTFSSYGMHWVRQAPGKGLEWLAIIWYDGDNKYYSDSVKGRFTISRDNSKNTLYLQMNSLRAEDTAEYYCVRDASIASRFLDYWGQGTLVTVSS
VL: DIQMTQSPSSLSASIGDRVTITCRATQDINNYLAWFQQKPGKAPKSLIYATSNLQSGVPSKFSGSGSGTDYTLTISSLQPEDFSTYYCQQYHSYPLTFGGGTKVEIK
- Kd [1]: 0.0408 nM
- T1/2 [1]: 16.5 h
- Kd (Monomeric hAng-2FD): 4.42 nM
- T1/2 (Monomeric hAng-2FD): 21.5 min
- Kd [2]: 0.362 nM
- T1/2 [2]: 32.2 min
- Kd [4]: 1.47 nM
- T1/2 [4]: 23 min
- Percent Blocking of Ang-2FD Binding to Tie-2 [6]: 99.4%
- Percent Blocking of Ang-2FD Binding to Tie-2 [7]: 53.7%
- Percent Blocking of Ang-2FD Binding to Tie-2 [8]: 97.4%

B5: H2M730N (antibody, V domains shown)
VH: EVQLVESGGGLVQPGGSLRLSCAASGFAFRSYWMTWVRQAPGKGLEWVANIQQDGNDKYYVDSVKGRFTISRDNAKNSLYLQMNSLRAEDTAVYYCARDTGIAEAGPFDYWGQGTLVTVSS
VL: DIQMTQSPSTLSASVGDRVSITCRASQTIISWLAWYQQKPGKAPRLLIYKASSLESGVPSRFSGSGSGTEFTLTINSLQPDDFATYYCQQYNRYWTFGQGTKVEIK
- Kd [1]: 0.0492 nM
- T1/2 [1]: 8.65 h
- Kd (Monomeric hAng-2FD): 2.06 nM
- T1/2 (Monomeric hAng-2FD): 24.4 min
- Kd [2]: 0.21 nM
- T1/2 [2]: 47 min
- Kd [4]: 0.842 nM
- T1/2 [4]: 36.6 min
- Percent Blocking of Ang-2FD Binding to Tie-2 [6]: 98.9%
- Percent Blocking of Ang-2FD Binding to Tie-2 [7]: 55%
- Percent Blocking of Ang-2FD Binding to Tie-2 [8]: 97.3%

— patent US20140112930A1 (published 2014)
